Assay results taken from article PMC5758886.

How the values were obtained:
[1] = biological target: AcrIIA1 selenomethionyl L52M mutant (Listeria monocytogenes prophages); assay: crystal structure
[2] = biological target: AcrIIA1 (native wild type) (Listeria monocytogenes prophages); assay: crystal structure
[3] = biological target: AcrIIA1 (native wild type) (Listeria monocytogenes prophages); assay: SEC

Substance	stoichiometry N [1]	stoichiometry N [2]	stoichiometry N [3]
AcrIIA1 selenomethionyl L52M mutant (natural protein)	2		
AcrIIA1 (native wild type) (natural protein)		2	2
